Laboratory results: US6413935
Non-standard residues stand in square brackets, D forms with d. No end group written: not given here. Cha = N[C@@H](CC1CCCCC1)C(=O)O; 14 = not defined here

Assays:
[1] = biological target: mouse class II IE^d, purified from A20 cells (mouse); experiment: assay standard, average IC50
[2] = biological target: T1, mouse class II IA^d, purified from A20 cells (mouse), P04228; experiment: 125I-peptide inhibition, purified class II
T1 chain 1: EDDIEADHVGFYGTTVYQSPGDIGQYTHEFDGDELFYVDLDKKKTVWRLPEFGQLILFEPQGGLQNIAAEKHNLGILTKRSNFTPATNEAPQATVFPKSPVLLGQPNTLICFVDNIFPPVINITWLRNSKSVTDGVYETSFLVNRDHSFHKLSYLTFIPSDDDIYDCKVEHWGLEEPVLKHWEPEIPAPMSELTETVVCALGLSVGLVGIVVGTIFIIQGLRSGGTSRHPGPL
T1 chain 2: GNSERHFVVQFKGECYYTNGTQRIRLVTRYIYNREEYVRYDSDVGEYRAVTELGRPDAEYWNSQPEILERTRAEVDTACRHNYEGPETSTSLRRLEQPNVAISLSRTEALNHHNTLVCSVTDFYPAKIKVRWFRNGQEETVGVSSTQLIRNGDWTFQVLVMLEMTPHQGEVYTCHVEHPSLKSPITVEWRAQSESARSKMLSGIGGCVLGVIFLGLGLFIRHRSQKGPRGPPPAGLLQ

[3] = biological target: mouse class II IE^d, purified from A20 cells (mouse); experiment: 125I-peptide inhibition, purified class II
[4] = biological target: T2, mouse class II IA^k, purified from CH12 cells (mouse), P01910; experiment: 125I-peptide inhibition, purified class II
T2 chain 1: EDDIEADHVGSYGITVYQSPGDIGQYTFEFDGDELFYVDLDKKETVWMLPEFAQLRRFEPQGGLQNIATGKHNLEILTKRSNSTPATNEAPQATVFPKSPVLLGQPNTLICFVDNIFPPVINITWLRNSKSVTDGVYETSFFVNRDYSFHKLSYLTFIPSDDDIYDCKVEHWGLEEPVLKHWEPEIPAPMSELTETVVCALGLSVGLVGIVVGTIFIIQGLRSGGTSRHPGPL
T2 chain 2: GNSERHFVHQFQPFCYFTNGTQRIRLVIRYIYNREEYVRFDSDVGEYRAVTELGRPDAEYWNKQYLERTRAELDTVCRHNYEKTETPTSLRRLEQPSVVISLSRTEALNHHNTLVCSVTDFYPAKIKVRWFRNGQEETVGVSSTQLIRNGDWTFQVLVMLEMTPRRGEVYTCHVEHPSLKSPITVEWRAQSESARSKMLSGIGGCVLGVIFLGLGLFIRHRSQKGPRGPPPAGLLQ

[5] = biological target: T3, mouse class II IA^b, purified from DB27.4 cells (mouse), P14434; experiment: 125I-peptide inhibition, purified class II
T3 chain 1: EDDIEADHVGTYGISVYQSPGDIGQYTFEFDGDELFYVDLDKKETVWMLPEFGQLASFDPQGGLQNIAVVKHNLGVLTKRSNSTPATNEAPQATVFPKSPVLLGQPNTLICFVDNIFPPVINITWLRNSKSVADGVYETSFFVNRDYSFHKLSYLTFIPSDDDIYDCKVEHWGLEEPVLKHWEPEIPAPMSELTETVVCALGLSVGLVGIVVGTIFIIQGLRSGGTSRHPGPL
T3 chain 2: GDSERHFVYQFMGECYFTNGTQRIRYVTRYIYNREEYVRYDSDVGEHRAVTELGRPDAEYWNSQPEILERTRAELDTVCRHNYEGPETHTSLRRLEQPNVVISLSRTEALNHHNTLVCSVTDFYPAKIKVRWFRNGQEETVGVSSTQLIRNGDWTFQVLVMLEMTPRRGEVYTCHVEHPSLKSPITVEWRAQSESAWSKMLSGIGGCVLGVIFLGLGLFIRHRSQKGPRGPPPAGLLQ

[6] = biological target: T4, HLA-DR4w4 (DRB1*0401), purified from PREISS cells (human); experiment: 125I-peptide inhibition, purified class II
T4 chain 1: not shown
T4 chain 2: not shown

[7] = biological target: T5, HLA-DR2w2b (DRB1*1501), purified from 3107 cells (human); experiment: 125I-peptide inhibition, purified class II
T5 chain 1: not shown
T5 chain 2: not shown

[8] = biological target: T6, HLA-DR3 (DRB1*0301), purified from MAT cells (human); experiment: 125I-peptide inhibition, purified class II
T6 chain 1: not shown
T6 chain 2: not shown

[9] = biological target: T7, HLA-DR52a (DRB3*0101), purified from MAT cells or TR81.19 transfected fibroblasts (human); experiment: 125I-peptide inhibition, purified class II
T7 chain 1: not shown
T7 chain 2: not shown

[10] = biological target: T8, HLA-DR2w2a (DRB5*0101), purified from L416.3 transfected fibroblasts (human); experiment: 125I-peptide inhibition, purified class II
T8 chain 1: not shown
T8 chain 2: not shown

[11] = biological target: HLA-DR1 (DRB1*0101), purified from LG2 cells (human); experiment: 125I-peptide inhibition, purified class II
[12] = biological target: mouse class II IE^k, purified from CH12 cells (mouse); experiment: 125I-peptide inhibition, purified class II
[13] = biological target: T9, HLA-DR7 (DRB1*0701), purified from PITOUT cells (human); experiment: 125I-peptide inhibition, purified class II
T9 chain 1: not shown
T9 chain 2: not shown

[14] = biological target: T10, HLA-DRw53 (DRB4*0101), purified from L257.6 transfected fibroblasts (human); experiment: 125I-peptide inhibition, purified class II
T10 chain 1: not shown
T10 chain 2: not shown

[15] = biological target: T2, mouse class II IA^k, purified from CH12 …; experiment: assay standard, average IC50
[16] = biological target: T11, HLA-DR5 (DRB1*11011), purified from cell line SWEIG (human); experiment: competition vs 125I-peptide, purified class II MHC
T11 chain 1: not shown
T11 chain 2: not shown

[17] = biological target: T12, HLA-DR4w4 (DRB1*0401), purified from cell line PREISS (human); experiment: competition vs 125I-peptide, purified class II MHC
T12 chain 1: not shown
T12 chain 2: not shown

[18] = biological target: T13, HLA-DR2w2a (DRB5*0101), purified from transfected fibroblasts L416.3 (human); experiment: competition vs 125I-peptide, purified class II MHC
T13 chain 1: not shown
T13 chain 2: not shown

[19] = biological target: T14, HLA-DR3 (DRB1*0301), purified from cell line MAT (human); experiment: competition vs 125I-peptide, purified class II MHC
T14 chain 1: not shown
T14 chain 2: not shown

[20] = biological target: T15, HLA-DR7 (DRB1*0701), purified from cell line PITOUT (human); experiment: competition vs 125I-peptide, purified class II MHC
T15 chain 1: not shown
T15 chain 2: not shown

[21] = biological target: T16, HLA-DR5 (DRB1*11011), purified from SWEIG cells (human); experiment: 125I-peptide inhibition, purified class II
T16 chain 1: not shown
T16 chain 2: not shown

[22] = biological target: mouse class II IA^s, purified from LS102.9 cells (mouse); experiment: 125I-peptide inhibition, purified class II
[23] = biological target: T1, mouse class II IA^d, purified from A20 …; experiment: assay standard, average IC50

YLEDARRLKAIYEKKK (modifications not checked) [lambda rep 12-26]
IC50 [1]: 170 nM | IC50 [2]: 1100 nM | IC50 [3]: 170 nM | IC50 [4]: > 10000 nM | IC50 [5]: > 10000 nM

[dA]A[Cha]VAAATLKAA[dA] [906.09]
IC50 [6]: 2.6 nM | IC50 [7]: 14 nM | IC50 [8]: 280 nM | IC50 [9]: 588 nM | IC50 [10]: 2 nM | IC50 [2]: 38 nM | IC50 [11]: 0.61 nM | IC50 [3]: 31 nM | IC50 [12]: 11 nM | IC50 [13]: 76 nM | IC50 [14]: 93 nM | IC50 [5]: 31 nM

YNTDGSTDYGILQINSR (modifications not checked) [HEL 46-61 (assay standard, with N-terminal Y)]
IC50 [15]: 20 nM

[dA]K[14]VAAHTLKAA[dA]-NH2 (reading uncertain; also: printed as aK(14)VAAHTLKAAa-NH2) [peptide 955.15 (as printed), aK(14)…a-NH2]
IC50 [16]: 29.9 nM | IC50 [17]: 3.2 nM | IC50 [18]: 5.4 nM | IC50 [19]: 2500 nM

[dA]K[14]VKAWTLKAA[dA]-NH2 (reading uncertain; also: printed as aK(14)VKAWTLKAAa-NH2) [peptide 965.021, aK(14)…a-NH2]
IC50 [16]: 4.1 nM | IC50 [20]: 89.3 nM | IC50 [19]: 1100 nM

[dA]A[Cha]IAAATLKAA[dA] [906.11]
IC50 [21]: 2.4 nM | IC50 [22]: 98 nM | IC50 [8]: 100 nM | IC50 [10]: 1.3 nM | IC50 [11]: 0.38 nM | IC50 [3]: 13 nM | IC50 [12]: 14 nM | IC50 [13]: 31 nM | IC50 [14]: 41 nM

ISQAVHAAHAEINE (modifications not checked) [Ova 323-336]
IC50 [23]: 110 nM | IC50 [2]: 110 nM | IC50 [12]: 700 nM | IC50 [4]: 1000 nM
